The record followed here is patent publication US20190071714, “[…] FOR CLOSTRIDIUM […] DETECTION” (McMaster University, published 2019).

Read-outs that look alike come from different tables or passages of the source.

Series [1] addresses T1, rGDH (recombinant glutamate dehydrogenase) (Clostridium difficile, UniProt P27346 SEQ:1-421).
T1 sequence: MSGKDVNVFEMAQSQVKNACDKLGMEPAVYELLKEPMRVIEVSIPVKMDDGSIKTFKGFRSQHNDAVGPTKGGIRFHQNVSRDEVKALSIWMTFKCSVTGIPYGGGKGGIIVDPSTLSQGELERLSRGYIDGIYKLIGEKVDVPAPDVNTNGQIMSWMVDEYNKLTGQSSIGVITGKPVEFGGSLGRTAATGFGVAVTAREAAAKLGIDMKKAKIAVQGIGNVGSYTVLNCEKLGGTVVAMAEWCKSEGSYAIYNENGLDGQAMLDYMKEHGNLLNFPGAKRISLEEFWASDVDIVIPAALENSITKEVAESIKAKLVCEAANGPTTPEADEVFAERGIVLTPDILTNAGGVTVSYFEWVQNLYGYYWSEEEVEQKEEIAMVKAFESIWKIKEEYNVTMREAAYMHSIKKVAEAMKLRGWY
As to the kind of experiment: pulldown; 20 nM DNA, rGDH beads; decreased. The note with it: tags: C-terminal His6; expressed in E. coli; Pro-Lab Diagnostics.

Series [2] concerns the target T1, rGDH (recombinant glutamate …). As to the kind of experiment: pulldown; 20 nM DNA, rGDH beads. The note with it: tags: C-terminal His6; expressed in E. coli; Pro-Lab Diagnostics.
Series [3] shares this target. As to the kind of experiment: pulldown. The note with it: tags: C-terminal His6; expressed in E. coli; Pro-Lab Diagnostics.
For series [4] the target is unchanged. As to the kind of experiment: pulldown; […]; 1x PBS, 150 mM NaCl, 0.02% Tween-20, pH 7.6, room temperature. The following applies: tags: C-terminal His6; expressed in E. coli; Pro-Lab Diagnostics.
Series [5] has the same target. As to the kind of experiment: pulldown; […]; PBS pH 7.6, room temperature. The note with it: tags: C-terminal His6; expressed in E. coli; Pro-Lab Diagnostics.
Series [6] concerns the target T2, BSA (UniProt P02769 P02769:25-607). Description: EMSA; 10 nM protein. The note with it: tags: Sigma. How it is done:
The truncated aptamer, anti-GDH-T1, was then radioactively labeled at the 5′ end and tested for binding to the rGDH target by EMSA assays.^{39,40} A typical image of an EMSA result is shown in FIG. 3A. It was observed that the electrophoretic mobility of the protein-aptamer complex was typically less than that of the free aptamer. The fractional saturation of bound aptamer was calculated as a function of rGDH concentration (FIG. 3B). […] The specificity was also tested by EMSA. No obvious band was observed when using proteins such as BSA, thrombin and IgG (FIG. 8).
Binding reactions were performed in 20 μL of 1× binding buffer containing 3 nM 32P-labeled anti-GDH1-T1 aptamer and various concentrations of rGDH (0 to 1000 nM). After incubation for 30 min, the reaction mixtures were spiked with 6× loading buffer, and then loaded into the wells of a nondenaturing polyacrylamide gel (8%) at 4° C. Visualization of DNA bands was done using a Typhoon 9200 imager and the resulting bands were quantified with ImageQuant software.
(In general: Mobility shift assays separate free from complexed probe on a gel.)

The target in series [7] is T1, rGDH (recombinant glutamate …). As to the kind of experiment: EMSA; […]; 1x PBS, 150 mM NaCl, 0.02% Tween-20, pH 7.6; […]. The following applies: tags: C-terminal His6; expressed in E. coli; Pro-Lab Diagnostics.
The target in series [8] is T3, thrombin (Homo sapiens, UniProt P00734;P00734 P00734:328-363,P00734:364-622). As to the kind of experiment: EMSA.
The next series concerns the target TcdA (toxin A) (Clostridium difficile, UniProt P16154 SEQ:1-2710).
A further series deals with TcdB (toxin B) (Clostridium difficile, UniProt P18177 SEQ:2-2366).
Series [9] concerns the target T3, thrombin.
Series [10] has as its target T2, BSA. As to the kind of experiment: RGO fluorescence sensor, 300 nM protein, no significant response. The following applies: tags: Sigma. The protocol:
The detection limit (defined as 3σ/slope, with a being the standard deviation of the blank samples) of the sensor was determined to be 1 nM (FIG. 5A). The selectivity of the aptamer-graphene biosensing system was also evaluated by using non-target proteins (BSA, thrombin, IgG, TcdA and TcdB).
In a typical assay, 20 μL of 5× binding buffer (5×PBS, containing 750 mM NaCl and 0.1% Tween-20, pH 7.6), 2 μL of FAM-labeled (5′ end) aptamer probe (7 μM), 30 μL of RGO solution (100 μg/mL) and 48 μL of water were first mixed and incubated in a micro-centrifuge tube for 30 min. Then, 10 μL of 1% BSA was added to block the surface. After incubating for 20 min, 5 μL of nGDH with different dilutions was added to the mixture and time-dependent fluorescence emission measurements were performed at λₑₓ/λₑₘ=494/518 nm. The emission intensity obtained at a reaction time of 60 min was plotted against nGDH concentration to obtain a limit of detection. A similar experiment was carried out using non-target proteins (BSA, human thrombin, human IgG, TcdA and TcdB from C. difficile) to evaluate aptamer selectivity.

T2 sequence (P02769 25-607, one chain of several): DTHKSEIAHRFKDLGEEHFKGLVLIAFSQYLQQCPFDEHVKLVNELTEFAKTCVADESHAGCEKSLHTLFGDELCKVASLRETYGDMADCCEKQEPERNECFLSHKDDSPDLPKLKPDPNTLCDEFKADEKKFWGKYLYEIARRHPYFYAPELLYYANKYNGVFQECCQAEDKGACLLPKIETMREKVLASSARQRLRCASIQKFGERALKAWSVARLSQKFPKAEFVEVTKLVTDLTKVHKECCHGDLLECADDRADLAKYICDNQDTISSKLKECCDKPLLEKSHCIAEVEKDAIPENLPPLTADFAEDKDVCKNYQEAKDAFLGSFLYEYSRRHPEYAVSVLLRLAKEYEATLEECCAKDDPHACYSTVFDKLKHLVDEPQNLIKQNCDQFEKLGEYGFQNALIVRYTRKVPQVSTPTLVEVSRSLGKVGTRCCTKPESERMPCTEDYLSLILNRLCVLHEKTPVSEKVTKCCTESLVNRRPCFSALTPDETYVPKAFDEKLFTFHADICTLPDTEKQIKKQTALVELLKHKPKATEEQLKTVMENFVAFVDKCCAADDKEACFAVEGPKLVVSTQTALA
TcdB (toxin B), sequence (P18177 2-2366): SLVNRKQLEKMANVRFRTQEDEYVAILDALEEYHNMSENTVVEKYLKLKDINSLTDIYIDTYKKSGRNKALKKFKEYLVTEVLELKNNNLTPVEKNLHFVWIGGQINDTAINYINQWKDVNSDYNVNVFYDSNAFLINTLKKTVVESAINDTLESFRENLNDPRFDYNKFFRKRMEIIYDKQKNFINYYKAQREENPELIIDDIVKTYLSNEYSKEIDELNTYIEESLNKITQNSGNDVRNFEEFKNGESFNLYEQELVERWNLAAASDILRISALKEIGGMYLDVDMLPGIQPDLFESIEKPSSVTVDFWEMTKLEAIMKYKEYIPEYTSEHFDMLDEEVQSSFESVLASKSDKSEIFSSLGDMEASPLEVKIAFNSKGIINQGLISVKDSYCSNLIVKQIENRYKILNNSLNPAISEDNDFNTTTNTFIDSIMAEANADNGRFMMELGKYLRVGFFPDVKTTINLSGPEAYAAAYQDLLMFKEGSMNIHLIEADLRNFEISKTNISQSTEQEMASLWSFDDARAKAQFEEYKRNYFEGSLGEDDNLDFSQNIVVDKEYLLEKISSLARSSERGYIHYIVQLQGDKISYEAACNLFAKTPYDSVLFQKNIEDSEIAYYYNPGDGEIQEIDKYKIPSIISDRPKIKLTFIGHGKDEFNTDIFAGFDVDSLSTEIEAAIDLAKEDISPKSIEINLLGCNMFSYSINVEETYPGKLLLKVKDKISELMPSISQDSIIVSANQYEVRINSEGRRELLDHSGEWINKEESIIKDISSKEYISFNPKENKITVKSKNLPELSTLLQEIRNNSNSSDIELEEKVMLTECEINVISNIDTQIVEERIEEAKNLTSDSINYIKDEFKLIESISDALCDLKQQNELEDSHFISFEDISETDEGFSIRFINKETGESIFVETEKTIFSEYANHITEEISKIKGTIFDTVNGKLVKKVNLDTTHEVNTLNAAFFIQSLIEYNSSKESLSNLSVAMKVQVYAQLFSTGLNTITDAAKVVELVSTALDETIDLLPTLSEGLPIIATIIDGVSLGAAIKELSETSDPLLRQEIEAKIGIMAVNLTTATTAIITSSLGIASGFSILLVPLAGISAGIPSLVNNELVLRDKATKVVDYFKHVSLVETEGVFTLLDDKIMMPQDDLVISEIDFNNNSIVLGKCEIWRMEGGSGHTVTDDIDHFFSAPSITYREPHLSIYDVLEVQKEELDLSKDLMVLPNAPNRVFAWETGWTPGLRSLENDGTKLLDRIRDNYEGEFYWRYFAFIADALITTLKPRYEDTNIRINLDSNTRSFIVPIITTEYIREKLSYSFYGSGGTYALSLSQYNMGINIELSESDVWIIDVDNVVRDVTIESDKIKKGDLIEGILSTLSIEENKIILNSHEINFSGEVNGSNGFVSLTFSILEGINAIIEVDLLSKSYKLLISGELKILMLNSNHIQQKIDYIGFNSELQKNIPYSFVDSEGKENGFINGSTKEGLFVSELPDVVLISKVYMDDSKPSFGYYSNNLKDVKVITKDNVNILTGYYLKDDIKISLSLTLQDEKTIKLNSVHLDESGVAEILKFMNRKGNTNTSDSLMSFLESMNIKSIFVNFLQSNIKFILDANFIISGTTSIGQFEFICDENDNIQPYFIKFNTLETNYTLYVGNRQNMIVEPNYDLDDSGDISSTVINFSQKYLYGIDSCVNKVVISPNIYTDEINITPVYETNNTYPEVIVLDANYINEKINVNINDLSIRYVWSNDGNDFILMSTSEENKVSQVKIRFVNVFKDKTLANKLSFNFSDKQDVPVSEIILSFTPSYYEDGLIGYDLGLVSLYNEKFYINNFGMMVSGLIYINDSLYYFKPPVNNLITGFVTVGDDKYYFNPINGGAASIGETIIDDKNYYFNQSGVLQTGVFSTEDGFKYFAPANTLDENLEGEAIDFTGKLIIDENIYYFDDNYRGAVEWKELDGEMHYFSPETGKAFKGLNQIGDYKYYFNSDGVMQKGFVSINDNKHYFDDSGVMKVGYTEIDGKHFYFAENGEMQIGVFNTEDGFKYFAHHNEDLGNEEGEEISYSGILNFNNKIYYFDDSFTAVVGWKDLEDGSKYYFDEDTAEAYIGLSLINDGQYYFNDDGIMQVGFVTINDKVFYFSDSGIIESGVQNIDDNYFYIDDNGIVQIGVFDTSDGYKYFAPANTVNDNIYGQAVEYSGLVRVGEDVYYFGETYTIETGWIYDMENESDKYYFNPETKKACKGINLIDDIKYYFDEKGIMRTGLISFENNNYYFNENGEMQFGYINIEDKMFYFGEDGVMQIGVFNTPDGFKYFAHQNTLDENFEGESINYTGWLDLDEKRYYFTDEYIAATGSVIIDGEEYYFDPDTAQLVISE

B1: anti-G1-T3 (ssDNA)
DNA: AGGTATTTAGTGCCAAGCCATCTCAAACGACGTCTGAGTCGCACTGCTCCTG
B1: the binding result in series [1] is recorded as “binds”.
On to AGGTATTTAGTGCCAAGCCATCGTCGCACTGCTCCTG (ssDNA) [anti-G1-T8], for which the binding result in [2] is “no binding”.
Regarding AGGTATTTAGTGCCAAGCCATCTCAAACGACGTCTGAGTCGCACTGCT (ssDNA) [anti-G1-T4], the binding result in series [3] is on record as “binds”.
TAGTGCCAAGCCATCTCAAACGACGTCTGAGTCGCACTG (ssDNA) [anti-G1-T7]: the binding result in series [2] is “no binding”.
Turning to AGCCATCTCAAACGACGTCTGAGTCGCA (ssDNA) [anti-G1-T6], the binding result in series [2] is on record as “no binding”.

B2: anti-G1 (anti-GDH1) (ssDNA)
DNA: CAGGTCCATCGAGTGGTAGGAGGAGGTATTTAGTGCCAAGCCATCTCAAACGACGTCTGAGTCGCACTGCTCCTGAACGTAC
Usually Kd stands for the equilibrium constant for the complex coming apart. Take B2: the Kd in series [4] worked out at 3.1 nM.

B3: anti-G3 (anti-GDH3) (ssDNA)
DNA: CAGGTCCATCGAGTGGTAGGATGCAGCGGACAGTGTGGGACCATCGCTGCGGATGTATGAATCGCACTGCTCCTGAACGTAC
Consider B3, for which the Kd in series [5] amounted to 5.6 nM.

B4: anti-G7 (anti-GDH7) (ssDNA)
DNA: CAGGTCCATCGAGTGGTAGGACCCAACCCACGATGCGCAAGAGGAATGCAGCCTACCAGCATCGCACTGCTCCTGAACGTAC
With B4, the Kd in series [5] is 4.6 nM.

B5: anti-G1-T1 (ssDNA)
DNA: TAGGAGGAGGTATTTAGTGCCAAGCCATCTCAAACGACGTCTGAGTCGCACTGCTCCTG
For B5, the binding result with BSA [6] and with thrombin [8] was “no binding” each time. The Kd in series [7] was determined as 4.5 nM.

B6: FAM-anti-GDH1-T1 (ssDNA)
DNA: B5 DNA
In the case of B6, the binding result in the series with TcdA (toxin A), with TcdB (toxin B), with thrombin [9] and with BSA [10] was “no binding” in each case.
